Measurements published in article PMC10268231 (Nature, 2021).

T1: POLA1 (human, UniProt P09884 1-1462)
T1 sequence (looked up): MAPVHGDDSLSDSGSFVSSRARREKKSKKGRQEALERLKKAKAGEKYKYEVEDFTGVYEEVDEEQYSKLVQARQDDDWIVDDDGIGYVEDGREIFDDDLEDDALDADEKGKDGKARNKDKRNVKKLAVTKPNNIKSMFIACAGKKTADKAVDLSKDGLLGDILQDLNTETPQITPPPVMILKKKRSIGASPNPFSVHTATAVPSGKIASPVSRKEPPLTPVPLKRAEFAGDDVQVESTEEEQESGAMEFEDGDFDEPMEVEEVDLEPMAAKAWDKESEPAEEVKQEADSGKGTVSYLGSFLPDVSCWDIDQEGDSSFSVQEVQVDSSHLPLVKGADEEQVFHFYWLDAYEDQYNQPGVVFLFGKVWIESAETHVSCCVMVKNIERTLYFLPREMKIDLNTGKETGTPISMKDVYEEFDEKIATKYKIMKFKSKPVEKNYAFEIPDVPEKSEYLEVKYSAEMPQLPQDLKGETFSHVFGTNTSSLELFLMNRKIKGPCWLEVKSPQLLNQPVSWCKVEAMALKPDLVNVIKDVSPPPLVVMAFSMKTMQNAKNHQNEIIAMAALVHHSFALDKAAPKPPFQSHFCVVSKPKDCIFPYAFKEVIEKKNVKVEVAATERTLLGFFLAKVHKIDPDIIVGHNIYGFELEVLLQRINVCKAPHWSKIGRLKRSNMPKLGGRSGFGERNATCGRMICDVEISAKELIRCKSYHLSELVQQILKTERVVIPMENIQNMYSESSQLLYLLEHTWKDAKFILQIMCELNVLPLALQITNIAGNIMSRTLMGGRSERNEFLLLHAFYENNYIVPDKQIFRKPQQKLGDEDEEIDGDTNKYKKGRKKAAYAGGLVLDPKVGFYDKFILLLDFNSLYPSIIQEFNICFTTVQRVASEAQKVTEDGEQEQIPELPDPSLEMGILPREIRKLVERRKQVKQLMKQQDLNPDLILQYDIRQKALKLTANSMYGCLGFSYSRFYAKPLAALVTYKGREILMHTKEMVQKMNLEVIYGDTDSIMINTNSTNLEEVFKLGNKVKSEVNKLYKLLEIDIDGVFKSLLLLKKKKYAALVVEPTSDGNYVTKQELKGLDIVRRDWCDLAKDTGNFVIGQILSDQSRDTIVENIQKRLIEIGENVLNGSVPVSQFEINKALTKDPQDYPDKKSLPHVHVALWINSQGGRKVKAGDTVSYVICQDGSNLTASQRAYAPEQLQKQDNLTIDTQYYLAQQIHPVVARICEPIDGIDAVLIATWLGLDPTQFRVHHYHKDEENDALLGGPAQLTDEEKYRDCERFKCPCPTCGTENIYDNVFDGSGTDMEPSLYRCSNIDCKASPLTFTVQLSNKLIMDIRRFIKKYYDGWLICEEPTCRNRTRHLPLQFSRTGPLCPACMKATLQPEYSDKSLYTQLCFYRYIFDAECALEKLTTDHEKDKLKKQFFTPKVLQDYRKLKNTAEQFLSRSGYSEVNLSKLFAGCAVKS

T2: PRIM2 (human, UniProt P49643-1 1-509)
T2 sequence (looked up): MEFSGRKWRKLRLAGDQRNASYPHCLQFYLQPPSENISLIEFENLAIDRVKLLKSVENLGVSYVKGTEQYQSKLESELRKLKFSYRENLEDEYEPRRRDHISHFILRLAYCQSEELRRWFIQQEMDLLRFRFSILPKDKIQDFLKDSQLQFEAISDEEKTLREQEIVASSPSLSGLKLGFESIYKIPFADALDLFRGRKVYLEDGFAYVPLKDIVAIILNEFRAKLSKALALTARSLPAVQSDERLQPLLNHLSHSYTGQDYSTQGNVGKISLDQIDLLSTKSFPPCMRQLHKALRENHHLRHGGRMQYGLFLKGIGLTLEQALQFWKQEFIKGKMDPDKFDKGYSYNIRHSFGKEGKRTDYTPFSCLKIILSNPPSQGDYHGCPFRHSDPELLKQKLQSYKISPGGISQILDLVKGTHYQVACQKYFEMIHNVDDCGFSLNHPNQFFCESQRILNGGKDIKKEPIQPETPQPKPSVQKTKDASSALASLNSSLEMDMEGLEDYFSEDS

B1: CTC1 (natural protein, human, UniProt Q2NKJ3 1-1217, looked up)
chain: MAAGRAQVPSSEQAWLEDAQVFIQKTLCPAVKEPNVQLTPLVIDCVKTVWLSQGRNQGSTLPLSYSFVSVQDLKTHQRLPCCSHLSWSSSAYQAWAQEAGPNGNPLPREQLLLLGTLTDLSADLEQECRNGSLYVRDNTGVLSCELIDLDLSWLGHLFLFPRWSYLPPARWNSSGEGHLELWDAPVPVFPLTISPGPVTPIPVLYPESASCLLRLRNKLRGVQRNLAGSLVRLSALVKSKQKAYFILSLGRSHPAVTHVSIIVQVPAQLVWHRALRPGTAYVLTELRVSKIRGQRQHVWMTSQSSRLLLLKPECVQELELELEGPLLEADPKPLPMPSNSEDKKDPESLVRYSRLLSYSGAVTGVLNEPAGLYELDGQLGLCLAYQQFRGLRRVMRPGVCLQLQDVHLLQSVGGGTRRPVLAPCLRGAVLLQSFSRQKPGAHSSRQAYGASLYEQLVWERQLGLPLYLWATKALEELACKLCPHVLRHHQFLQHSSPGSPSLGLQLLAPTLDLLAPPGSPVRNAHNEILEEPHHCPLQKYTRLQTPSSFPTLATLKEEGQRKAWASFDPKALLPLPEASYLPSCQLNRRLAWSWLCLLPSAFCPAQVLLGVLVASSHKGCLQLRDQSGSLPCLLLAKHSQPLSDPRLIGCLVRAERFQLIVERDVRSSFPSWKELSMPGFIQKQQARVYVQFFLADALILPVPRPCLHSATPSTPQTDPTGPEGPHLGQSRLFLLCHKEALMKRNFCVPPGASPEVPKPALSFYVLGSWLGGTQRKEGTGWGLPEPQGNDDNDQKVHLIFFGSSVRWFEFLHPGQVYRLIAPGPATPMLFEKDGSSCISRRPLELAGCASCLTVQDNWTLELESSQDIQDVLDANKSLPESSLTDLLSDNFTDSLVSFSAEILSRTLCEPLVASLWMKLGNTGAMRRCVKLTVALETAECEFPPHLDVYIEDPHLPPSLGLLPGARVHFSQLEKRVSRSHNVYCCFRSSTYVQVLSFPPETTISIPLPHIYLAELLQGGQSPFQATASCHIVSVFSLQLFWVCAYCTSICRQGKCTRLGSTCPTQTAISQAIIRLLVEDGTAEAVVTCRNHHVAAALGLCPREWASLLDFVQVPGRVVLQFAGPGAQLESSARVDEPMTMFLWTLCTSPSVLRPIVLSFELERKPSKIVPLEPPRLQRFQCGELPFLTHVNPRLRLSCLSIRESEYSSSLGILASSC
B2: CTC1–STN1–TEN1 (CST) complex (complex, human)
chain 1: B1 chain
chain 2: QPGSSRCEEETPSLLWGLDPVFLAFAKLYIRDILDMKESRQVPGVFLYNGHPIKQVDVLGTVIGVRERDAFYSYGVDDSTGVINCICWKKLNTESVSAAPSAARELSLTSQLKKLQETIEQKTKIEIGDTIRVRGSIRTYREEREIHATTYYKVDDPVWNIQIARMLELPTIYRKVYDQPFHSSALEKEEALSNPGALDLPSLTSLLSEKAKEFLMENRVQSFYQQELEMVESLLSLANQPVIHSASSDQVNFKKDTTSKAIHSIFKNAIQLLQEKGLVFQKDDGFDNLYYVTREDKDLHRKIHRIIQQDCQKPNHMEKGCHFLHILACARLSIRPGLSEAVLQQVLELLEDQSDIVSTMEHYYTAF
chain 3: LPKPGTYYLPWEVSAGQVPDGSTLRTFGRLCLYDMIQSRVTLMAQHGSDQHQVLVCTKLVEPFHAQVGSLYIVLGELQHQQDRGSVVKARVLTCVEGMNLPLLEQAIREQRLYKQERGGSQ
B3: PRIM1 (natural protein, human)
chain: ETFDPTELPELLKLYYRRLFPYSQYYRWLNYGGVIKNYFQHREFSFTLKDDIYIRYQSFNNQSDLEKEMQKMNPYKIDIGAVYSHRPNQHNTVKLGAFQAQEKELVFDIDMTDYDDVRRCCSSADICPKCWTLMTMAIRIIDRALKEDFGFKHRLWVYSGRRGVHCWVCDESVRKLSSAVRSGIVEYLSLVKGGQDVKKKVHLSEKIHPFIRKSINIIKKYFEEYALVNQDILENKESWDKILALVPETIHDELQQSFQKSHNSLQRWEHLKKVASRYQNNIKNDKYGPWLEWEIMLQYCFPRLDINVSKGINHLLKSPFSVHPKTGRISVPIDLQKVDQFDPFTVPTISFICRELDAISTNEEEKEENEAESDVKHRTRDYKKTSLAPYVKVFEHFLENLDKSRKGELLKKSDLQKDF
B4: STN1 (natural protein, human)
chain: B2 chain 2

Experiments:
Experiment in all cases: cryo-EM structure
POLA1 = target: T1, POLA1
[1] = target: DNA polymerase-α–primase (Polα–primase) complex, PRIM1–PRIM2–POLA1–POLA2, full-length (human, UniProt P09884 1-1462; Q14181-1 1-598; P49642 2-420; P49643-1 1-509)
PRIM2 = target: T2, PRIM2
PRIM1 = target: B3

DNA polymerase-α–primase (Polα–primase) complex, PRIM1–PRIM2–POLA1–POLA2, full-length, sequence (Q14181 whole entry, one chain of several): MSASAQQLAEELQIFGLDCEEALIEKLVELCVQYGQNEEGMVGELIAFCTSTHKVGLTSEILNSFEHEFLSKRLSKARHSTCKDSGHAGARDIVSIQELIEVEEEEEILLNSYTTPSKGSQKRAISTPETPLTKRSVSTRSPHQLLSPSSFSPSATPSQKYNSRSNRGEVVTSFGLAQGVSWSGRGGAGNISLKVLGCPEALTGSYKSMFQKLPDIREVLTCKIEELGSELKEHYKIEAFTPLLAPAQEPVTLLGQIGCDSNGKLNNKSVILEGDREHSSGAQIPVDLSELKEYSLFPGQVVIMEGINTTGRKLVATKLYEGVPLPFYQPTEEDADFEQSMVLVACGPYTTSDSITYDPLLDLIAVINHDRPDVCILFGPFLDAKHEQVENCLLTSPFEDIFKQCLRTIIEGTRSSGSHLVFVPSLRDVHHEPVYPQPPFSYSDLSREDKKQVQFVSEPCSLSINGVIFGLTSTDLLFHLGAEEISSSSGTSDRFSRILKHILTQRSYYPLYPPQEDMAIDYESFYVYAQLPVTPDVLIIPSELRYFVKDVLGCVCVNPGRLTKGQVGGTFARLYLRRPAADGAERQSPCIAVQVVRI

Binder: B1
binding result (POLA1): binds

Binder: B2
stoichiometry N [1]: 1

Binder: B3
binding result (PRIM2): binds

Binder: B4
binding result (PRIM1): binds
